From doi:10.1101/2020.05.06.080432

Key:
Assay in all cases: MST
[1] = target: His6-GlnA1 (Methanosarcina mazei) (UniProt Q8PY99)
[2] = target: His6-GlnK1 (Methanosarcina mazei) (UniProt Q8PYW7)
[3] = target: synthesized sP26 (Davids Biotechnologie), nt-647-NHS-labeled (Methanosarcina mazei)

His6-sP26 (natural protein)
Kd [1]: 45000 nM
Kd [2]: 1400 nM

B1: His6-GlnK1 (natural protein)
chain: MVAMKYVIAMIRPERLDAVKRELQKIEVSRLTVSSVSGYGAQKGYMEIYRAMEYDANLLEKIKIEIAVNDEFLEPTIEAIKTGAKGSDGYVGSGKIFVLPLENVIRIRTNETGPEAI
Kd [3]: 47 nM

B2: His6-GlnA1 (enzyme)
chain: MVQMKKCTTKEDVLEAVKERDVKFIRTQFTDTLGIIKSWAIPAEQLEEAFENGVMFDGSSIQGFTRIEESDMKLALDPSTFRILPWRPATGAVARILGDVYLPDGNPFKGDPRYVLKTAIKEAEKMGFSMNVGPELEFFLFKLDANGNPTTELTDQGGYFDFAPLDRAQDVRRDIDYALEHMGFQIEASHHEVAPSQHEIDFRFGDVLCTADNVVTFKYVVKSIAYHKGYYASFMPKPLFGVNGSGMHSNQSLFKDGKNVFYDPDTPTKLSQDAMYYIGGLLKHIREFTAVTNPVVNSYKRLVPGYEAPVYISWSAQNRSSLIRIPATRGNGTRIELRCPDPACNPYLAFALMLRAGLEGIKNKIDPGEPTNVNIFHLSDKEREERGIRSLPADLKEAIDEMKGSKFVKEALGEHVFSHYLCAKEMEWDEYKAVVHPWELSRYLSML
Kd [3]: 76 nM
